Assay results from US20120052075A1 (H LUNDBECK A S, published 2012).

How the values were obtained:
[1] = target: soluble SorCS2 (extracellular domain of SorCS2), immobilized on the Biacore chip (Homo sapiens in the sequence list; not stated for the assay) (UniProt Q96PQ0); assay: SPR (BIAcore), soluble SorCS2 immobilized, propeptide at 20 nM and 50 nM
[2] = target: T1, soluble SorCS2 (extracellular domain of SorCS2), immobilized on the Biacore chip (Homo sapiens in the sequence list; not …, UniProt Q96PQ0 51-1078); assay: SPR (BIAcore), soluble SorCS2 immobilized, p75 ECD at 1 uM
T1 construct: also called immobilized soluble SorCS2
T1 sequence (Q96PQ0 51-1078 S716P limits assumed): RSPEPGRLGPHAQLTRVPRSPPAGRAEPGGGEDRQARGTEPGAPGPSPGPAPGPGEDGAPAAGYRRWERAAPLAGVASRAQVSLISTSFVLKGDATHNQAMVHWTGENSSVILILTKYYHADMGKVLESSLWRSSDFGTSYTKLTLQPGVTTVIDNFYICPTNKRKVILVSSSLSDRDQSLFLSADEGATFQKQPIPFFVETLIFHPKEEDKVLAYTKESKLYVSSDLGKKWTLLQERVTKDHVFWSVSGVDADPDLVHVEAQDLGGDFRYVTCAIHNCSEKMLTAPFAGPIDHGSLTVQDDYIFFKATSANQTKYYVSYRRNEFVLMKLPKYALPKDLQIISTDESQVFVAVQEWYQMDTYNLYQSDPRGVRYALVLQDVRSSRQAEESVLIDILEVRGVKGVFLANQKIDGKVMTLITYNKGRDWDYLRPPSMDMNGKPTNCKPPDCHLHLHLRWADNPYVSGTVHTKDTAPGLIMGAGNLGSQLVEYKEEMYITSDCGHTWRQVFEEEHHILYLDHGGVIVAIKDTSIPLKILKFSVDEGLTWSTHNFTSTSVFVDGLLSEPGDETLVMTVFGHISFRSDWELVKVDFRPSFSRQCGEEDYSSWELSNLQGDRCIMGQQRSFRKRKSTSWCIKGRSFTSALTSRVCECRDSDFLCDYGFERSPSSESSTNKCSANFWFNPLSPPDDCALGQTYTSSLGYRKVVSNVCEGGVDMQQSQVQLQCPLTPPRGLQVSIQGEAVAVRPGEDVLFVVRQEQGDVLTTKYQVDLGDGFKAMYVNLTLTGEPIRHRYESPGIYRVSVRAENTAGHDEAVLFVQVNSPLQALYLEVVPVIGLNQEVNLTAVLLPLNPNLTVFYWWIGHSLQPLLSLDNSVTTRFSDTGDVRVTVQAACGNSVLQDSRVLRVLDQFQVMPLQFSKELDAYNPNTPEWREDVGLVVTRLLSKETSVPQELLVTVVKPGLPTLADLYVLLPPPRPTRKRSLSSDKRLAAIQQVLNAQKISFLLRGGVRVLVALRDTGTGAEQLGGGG
Method: FIG. 6: Physical interaction between SorCS2 and p75^NTR. A, HEK293 cells stably transfected with SorCS2 and p75^NTR encoding vectors were crosslinked with DSP (Pierce) and subsequently lysed. The cell lysate was incubated with antibody against SorCS2 bound to Gammabind beads (GE Healthcare). The precitated complexes were eluted from the washed beads with SDS loading buffer. […] The presence of p75^NTR and IgG heavy is indicated. HEK293 cells stably transfected with a p75^NTR encoding plasmid alone were used as negative control. B, surface plasmon resonance experiment (BIAcore) showing the direct interaction of soluble full-length extracellular domain of p75^NTR (p75 ECD) with immobilized soluble SorCS2. The p75 ECD concentration used was 1 μM.
HEK293 cells stably transfected with plasmids encoding SorCS2 and p75^NTR were crosslinked with DSP (Pierce) and subsequently lysed. The cell lysate was incubated with antibody against SorCS2 bound to Gammabind beads (GE Healthcare). Precipitated complexes were eluted from the washed beads with SDS loading buffer. […] A biosensor chip from Biacore (CM5, cat.no. BR-1000-14) was activated using the NHS/EDC method as described by the supplier followed by coating with SorCS2 (FIG. 6B).

[3] = target: T1, soluble SorCS2 (extracellular domain of …); assay: SPR (BIAcore), soluble SorCS2 immobilized, BDNF at 10 nM and 20 nM

soluble SorCS2 (extracellular domain of SorCS2), immobilized on the Biacore chip (Homo sapiens in the sequence list; not stated for the assay), sequence (Q96PQ0 51-1078 S716P limits assumed): as above

BDNF propeptide (from UniProt P23560 19-128) (ligand)
Kd [1]: 15 nM

B1: soluble full-length extracellular domain of p75^NTR (receptor)
chain: KEACPTGLYTHSGECCKACNLGEGVAQPCGANQTVCEPCLDSVTFSDVVSATEPCKPCTECVGLQSMSAPCVEADDAVCRCAYGYYQDETTGRCEACRVCEAGSGLVFSCQDKQNTVCEECPDGTYSDEANHVDPCLPCTVCEDTERQLRECTRWADAECEEIPGRWITRSTPPEGSDSTAPSTQEPEAPPEQDLIASTVAGVVTTVMGSSQPVVTRGTTDN
notes: Whole entry named; also called p75 ECD
Kd [2]: ~10 nM

B2: mature BDNF (ligand)
chain: HSDPARRGELSVCDSISEWVTAADKKTAVDMSGGTVTVLEKVPVSKGQLKQYFYETKCNPMGYTKEGCRGIDKRHWNSQCRTTQSYVRALTMDSKKRIGWRFIRIDTSCVCTLTIKRGR
Kd [3]: 5 nM
